# Data from the supplement of paper PMC7125110.
# ± gives the standard error. For some assays here: Fewer inactive variants are shown than the library holds.
# B1: glmS ribozyme (parent)
# chain: AUAAAAGCGCCAGAACUACAGAAAUGUAGUUGACGAGGAGGAGGUUUAUCGAAUUUUCGGCGGAUGCCUCCAAA
# Legend:
# Settings in all cases: with glucosamine-6-phosphate
# [1] = variants of: B1; assay: kcat; higher = faster cleavage; RNA array
# In short: (§1)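 Barcoded ribozyme variants, transcribed in situ by E. coli RNA polymerase on sequenced MiSeq chips, were followed via a hybridised Cy3 probe at 37 °C. Glucosamine-6-phosphate ranged from 40 μM to 10 mM in HEPES/KCl/Mg(OAc)2 buffer. kobs came from decay fits to per-tile medians, and kcat and KM from weighted Michaelis–Menten fits.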
# [2] = variants of: B1; assay: self-cleavage kobs at 640 uM GlcN6P; higher = faster cleavage; RNA array
# In short: as §1
# [3] = variants of: B1; assay: self-cleavage kobs at 10000 uM GlcN6P; higher = faster cleavage; RNA array
# In short: as §1
# [4] = variants of: B1; assay: KM; higher = weaker cofactor use; RNA array
# In short: as §1
# [5] = variants of: B1; assay: self-cleavage kobs at 160 uM GlcN6P; higher = faster cleavage; RNA array
# In short: as §1
# [6] = variants of: B1; assay: self-cleavage kobs at 2500 uM GlcN6P; higher = faster cleavage; RNA array
# In short: as §1
# [7] = variants of: B1; assay: self-cleavage kobs at 40 uM GlcN6P; higher = faster cleavage; RNA array
# In short: as §1
Variant,kcat [1] [s⁻¹],self-cleavage kobs at 640 uM GlcN6P [2] [s⁻¹],self-cleavage kobs at 10000 uM GlcN6P [3] [s⁻¹],KM [4] [µM],self-cleavage kobs at 160 uM GlcN6P [5] [s⁻¹],self-cleavage kobs at 2500 uM GlcN6P [6] [s⁻¹],self-cleavage kobs at 40 uM GlcN6P [7] [s⁻¹]
A6C C8U G35C C58G,< 1e-05,< 1e-05,< 1e-05,,,,
A14U C58A,0.000695 ± 4.9e-05,0.000162 ± 3.2e-05,0.000594 ± 7.5e-05,2220 ± 300,5.03e-05 ± 1.2e-05,0.000346 ± 4.3e-05,
U46G C68G,0.000103 ± 4e-06,5.11e-05 ± 1.8e-05,9.69e-05 ± 1.7e-05,678 ± 110,,7.97e-05 ± 1.8e-05,
G41C U54C,0.000229 ± 4e-05,0.000132 ± 2.8e-05,0.000204 ± 2.4e-05,,,0.000162 ± 3.3e-05,
A15U A48U,0.000133 ± 4.2e-05,,4.87e-05 ± 9.2e-06,,< 1e-05,,
A48C C67U,0.000136 ± 1.3e-05,,9.42e-05 ± 1.2e-05,4380 ± 1100,,5.35e-05 ± 1.4e-05,
G13U C50G A52C,1.8e-05 ± 3e-06,,,,,,
C16A G66A,0.00167 ± 9.1e-05,0.000223 ± 5e-05,0.00118 ± 0.00018,4130 ± 370,6.8e-05 ± 3.1e-05,0.000633 ± 0.00013,
U30C G60U,< 1e-05,< 1e-05,< 1e-05,,,,< 1e-05
A52C U57C,3.44e-05 ± 6.5e-06,,2.95e-05 ± 1e-05,,,4.64e-05 ± 1.6e-05,
A14U G43U,< 1e-05,,,,,,< 1e-05
A42U C68G,1.72e-05 ± 6.1e-06,,,,,,
C16A C58A,0.000107 ± 7.2e-06,,9.21e-05 ± 1.1e-05,1510 ± 430,,7.24e-05 ± 1.4e-05,
A39G G44U,0.00229 ± 0.0007,0.000198 ± 5e-05,0.00136 ± 0.00023,6340 ± 3000,,0.000853 ± 0.00022,
U45G U54C,0.0089 ± 0.00053,0.00308 ± 0.00078,0.00798 ± 0.001,1480 ± 160,0.000851 ± 0.00024,0.00519 ± 0.00085,0.000233 ± 5.4e-05
A14G U49G,0.00278 ± 0.00095,0.000937 ± 0.00022,0.00302 ± 0.00044,,,0.00109 ± 0.0003,7.8e-05 ± 1.6e-05
A12C A15G,0.016 ± 0.0031,0.00332 ± 0.0006,0.0142 ± 0.0018,2400 ± 600,0.000883 ± 0.00014,0.00626 ± 0.0015,0.000302 ± 3.5e-05
U30A A36G,< 1e-05,< 1e-05,,,,,< 1e-05

Variant,kcat [1] [s⁻¹],self-cleavage kobs at 640 uM GlcN6P [2] [s⁻¹],self-cleavage kobs at 10000 uM GlcN6P [3] [s⁻¹],KM [4] [µM],self-cleavage kobs at 160 uM GlcN6P [5] [s⁻¹],self-cleavage kobs at 2500 uM GlcN6P [6] [s⁻¹],self-cleavage kobs at 40 uM GlcN6P [7] [s⁻¹]
A48G G63A,< 1e-05,,,,< 1e-05,,< 1e-05
A39U U65G,0.00369 ± 0.0011,0.000445 ± 9.7e-05,0.0031 ± 0.00036,2880 ± 1200,0.0002 ± 2.9e-05,0.00164 ± 0.00021,6.84e-05 ± 8.5e-06
A6C G29A,< 1e-05,,,,,,< 1e-05
G13C G29A,0.000136 ± 1.6e-05,3.33e-05 ± 1.2e-05,0.000106 ± 1.2e-05,3070 ± 910,,5.64e-05 ± 9.9e-06,
C16A U69C,0.00012 ± 3.2e-05,9.93e-05 ± 2.2e-05,0.000168 ± 4e-05,,,7.87e-05 ± 2.2e-05,
C50A C61U C70U,3.88e-05 ± 1.2e-05,,,,,,
U57G C58U,2.34e-05 ± 1.1e-05,,,,< 1e-05,,< 1e-05
A14G G40C,0.0146 ± 0.0059,0.00301 ± 0.00036,0.0168 ± 0.0032,,0.000739 ± 0.0001,0.00549 ± 0.00094,0.000285 ± 5.8e-05
G29U A39C,0.00147 ± 0.00028,0.000457 ± 5.8e-05,0.00118 ± 0.00014,2170 ± 670,8.26e-05 ± 1.4e-05,0.000781 ± 0.0001,2.91e-05 ± 9.8e-06
G13U C71G,5.14e-05 ± 2.7e-06,3.7e-05 ± 9e-06,5.01e-05 ± 5.6e-06,155 ± 74,,5.35e-05 ± 1e-05,
U31A A52G C68A,1.75e-05 ± 4.6e-06,,,,,,
A14C A33C,< 1e-05,< 1e-05,,,,,< 1e-05
C70U C71A,0.000245 ± 1.7e-05,0.00013 ± 1.4e-05,0.000247 ± 3e-05,607 ± 110,5.23e-05 ± 9.7e-06,0.00018 ± 2.3e-05,
C58U U65C,< 1e-05,,,,,< 1e-05,
A15C A33C,6.42e-05 ± 3.3e-06,,5.37e-05 ± 6.3e-06,1900 ± 440,,3.95e-05 ± 1.2e-05,
A15U C71G,0.000329 ± 9.4e-05,9.25e-05 ± 9.6e-06,0.000359 ± 4.3e-05,,4.2e-05 ± 8.4e-06,0.000157 ± 2.3e-05,
G29C U69C,0.000103 ± 2.8e-05,0.000129 ± 2.2e-05,6.68e-05 ± 1.6e-05,,8.98e-05 ± 2.2e-05,0.000164 ± 3e-05,
G66U C68A,6.39e-05 ± 1.2e-05,9.21e-05 ± 2.2e-05,,,3.61e-05 ± 1.6e-05,5.77e-05 ± 8.7e-06,
